Results reported in paper PMC11286758, “The small CRL4^CSA ubiquitin ligase component DDA1 regulates transcription-coupled repair dynamics” (Nature Communications, 2024).

Target: T1, CSA-DDB1 (human, UniProt Q13216 1-396; Q16531 1-1140)
T1 construct: CSA, human, full-length coding gene; pAC8-CSA-Strep II clone; DDB1, human, full-length coding gene, synthesized and codon-optimized for insect cells; also called CSA/DDB1 complex; CSA-DDB1 alone; source: Sf9, co-expressed (biGBac), purified (Nickel-chelating sepharose, Resource Q, Superdex 200)
Test: nano-differential scanning fluorimetry; complexes at 2 µM in 20 mM HEPES pH 7.5, 150 mM NaCl, 5% glycerol, 0.5 mM TCEP; Prometheus NT.48, 350/330 nm ratio, 1 °C/min from 20 to 90 °C; compared with CSA-DDB1 alone
Conditions: both partners purified

T1 sequence (Q13216 whole entry, chain 1 of 2): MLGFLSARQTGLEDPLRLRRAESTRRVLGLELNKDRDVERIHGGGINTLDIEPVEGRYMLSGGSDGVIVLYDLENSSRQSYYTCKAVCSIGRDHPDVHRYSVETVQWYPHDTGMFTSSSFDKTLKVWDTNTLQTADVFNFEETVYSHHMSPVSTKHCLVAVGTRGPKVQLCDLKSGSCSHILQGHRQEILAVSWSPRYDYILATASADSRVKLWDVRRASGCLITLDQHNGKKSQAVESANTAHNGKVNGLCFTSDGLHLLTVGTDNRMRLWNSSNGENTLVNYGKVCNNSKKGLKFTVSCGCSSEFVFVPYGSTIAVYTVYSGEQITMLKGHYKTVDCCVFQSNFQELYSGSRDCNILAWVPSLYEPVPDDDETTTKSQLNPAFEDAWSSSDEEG
T1 sequence (Q16531 whole entry, chain 2 of 2): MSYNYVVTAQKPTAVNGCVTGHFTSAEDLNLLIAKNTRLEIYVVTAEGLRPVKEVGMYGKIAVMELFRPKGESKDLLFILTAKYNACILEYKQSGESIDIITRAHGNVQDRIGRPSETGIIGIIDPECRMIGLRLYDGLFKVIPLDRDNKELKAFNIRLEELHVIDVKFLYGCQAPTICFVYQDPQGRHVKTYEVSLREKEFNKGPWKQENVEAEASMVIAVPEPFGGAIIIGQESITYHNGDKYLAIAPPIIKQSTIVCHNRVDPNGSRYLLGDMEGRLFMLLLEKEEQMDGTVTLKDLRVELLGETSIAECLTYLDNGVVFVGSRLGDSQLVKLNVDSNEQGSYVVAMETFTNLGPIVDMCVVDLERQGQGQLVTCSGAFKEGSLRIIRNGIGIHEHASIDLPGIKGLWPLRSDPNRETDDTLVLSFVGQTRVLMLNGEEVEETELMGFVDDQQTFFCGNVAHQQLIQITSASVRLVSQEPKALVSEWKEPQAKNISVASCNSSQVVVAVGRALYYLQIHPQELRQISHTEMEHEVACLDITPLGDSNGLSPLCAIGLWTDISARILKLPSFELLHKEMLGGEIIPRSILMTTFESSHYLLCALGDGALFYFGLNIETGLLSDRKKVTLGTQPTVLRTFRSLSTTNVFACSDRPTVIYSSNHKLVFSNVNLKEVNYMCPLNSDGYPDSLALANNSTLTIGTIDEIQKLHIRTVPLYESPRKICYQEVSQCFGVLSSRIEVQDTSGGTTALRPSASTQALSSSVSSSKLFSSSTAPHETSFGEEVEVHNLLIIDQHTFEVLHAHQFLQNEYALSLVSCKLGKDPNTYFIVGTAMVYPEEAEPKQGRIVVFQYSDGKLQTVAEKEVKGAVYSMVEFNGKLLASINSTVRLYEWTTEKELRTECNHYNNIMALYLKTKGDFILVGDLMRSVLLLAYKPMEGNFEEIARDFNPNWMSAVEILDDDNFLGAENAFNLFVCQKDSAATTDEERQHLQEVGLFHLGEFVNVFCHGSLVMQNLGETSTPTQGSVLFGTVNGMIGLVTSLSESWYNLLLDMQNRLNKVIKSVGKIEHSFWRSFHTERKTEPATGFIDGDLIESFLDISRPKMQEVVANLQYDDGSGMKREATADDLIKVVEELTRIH

B1: DDA1^1-52 (domain or fragment)
chain: not shown
notes: DDA1, human, residues 1-52; Used as the complex CSA-DDB1-DDA1^1-52; also called DDA1 C-terminal truncation; DDA1Δ
B1: binds.
